± gives the uncertainty stated by the source.
Experiment: amyloid nucleation score (Sup35N fusion, yeast selection) (log enrichment); library NNK2; higher = more nucleation; inactive = no reads after selection
How it was run: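 Yeast lacking psi expressed peptides of 20 random codons fused to Sup35N, received 100 μM copper sulfate for 24 hours, and were then grown for 7 days at 30°C on medium lacking adenine and uracil. Illumina sequencing of input and output plasmid inserts provided the reads. Nucleation scores are DiMSum log enrichments of output over input, centred on the mode of non-aggregating sequences. Any sequence with under 100 input reads was excluded.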

Row | Substance | amyloid nucleation score
1 | HEMRDGNSRLMFYWGVSCNM | 0.062 ± 0.45
2 | VHVWWANVIRVMYNHVRSDW | 0.133 ± 0.34
3 | KLAPLNKGSFA | -0.211 ± 0.63
4 | VWLNSHFLMGRI | -1.46 ± 0.54
5 | ALLDHFPDEGHFKATFISSI | 0.85 ± 0.58
6 | ATSMVSSTRVHVHFDHVRVE | 6.54 ± 0.066
7 | IDLAFLLAVAVEPGWRTEV | -0.024 ± 1
8 | MMAIFWGFSVQRRRGSGIDL | 2.74 ± 0.18
9 | SYYFGPHWRVYTAFARFRI | inactive
10 | LLYTDYMMIYCIAFMLSDDY | -0.916 ± 1.1
11 | AFNWIEVCEETSPGSTTEGS | 0.318 ± 0.39
12 | IARLASQSYLDMVADAEDTG | 0.472 ± 0.49
13 | NRPMEGRLKWSMTVLIVSLY | -0.187 ± 0.65
14 | EVPCWMTRSSMECNVDYWEG | 0.797 ± 0.2
15 | PIYCINRFDNWYLL | 5.94 ± 0.041
16 | IQLDRSYSHNTSSLQGWHTM | 0.062 ± 0.74
17 | GELGQCVIKSVMSMLHKRAN | -0.347 ± 0.79
18 | KSHAPFVLMCRIGVGSKCGK | 3.81 ± 0.09
19 | KDWGFRNTCG | -0.184 ± 1.1
20 | FCLNATKAWFVLGVMYLDHW | -0.805 ± 0.35
21 | CILLPKVSCCCKGLICCDFV | 0.186 ± 0.34
22 | KAIYPYLI | inactive

Row | Substance | amyloid nucleation score
23 | FCKYANSGGCNHSMSDAV | -0.761 ± 1.1
24 | WLLLYTCHLMISQISFHRKS | -0.874 ± 0.61
25 | LLETMAK | inactive
26 | WTYRCPALLFYQFYAKGYA | -0.594 ± 0.63
27 | LQGRYNSTYYMDVAGLVVSE | -1.23 ± 0.76
28 | VVVRNGLLNISFKVNRCGFG | 8.662 ± 0.055
29 | KRWCRGSE | 0.229 ± 0.24
30 | RLNYA | 0.772 ± 0.81
31 | FHGRSATGISRLYLKRGCSG | 0.761 ± 0.47
32 | CATSISMLEHQ | 0.556 ± 0.2
33 | AWRKRH | 0.746 ± 0.18
34 | KSASCKPIMSYPKVLPS | 0.208 ± 0.8
35 | GQSCHYCRMTLNIDFTDWVL | -0.228 ± 0.39
36 | SIVYTLTCVL | 4.945 ± 0.038
37 | IDGRDSFCQGGNRTCSKGCC | -0.303 ± 0.65
38 | TLCLMVVFKSRYCSFRIHMM | 0.21 ± 1
39 | YFNGL | inactive
40 | SLSQMRLSVLSNKDHSIEL | 7.964 ± 0.056
41 | FPSCSRGLHFKGLWTWYFPT | -0.388 ± 1.1
42 | FSEVSCGLCTMYTLFVEFFN | 0.174 ± 1
43 | CLFYRCCMHDPRSLLEKGRP | 5.835 ± 0.037
44 | DYILLARYSRNVHCS | -0.343 ± 0.37

Row | Substance | amyloid nucleation score
45 | RFHGTGSQHS | -0.496 ± 0.39
46 | MFSPQLSALMILVSYMHDGW | 2.04 ± 0.087
47 | LLTMVHTSSIRKESGF | -0.118 ± 0.5
48 | KNIAISSRVADAGFWL | 2.31 ± 0.093
49 | TCARFVGMEM | 1.22 ± 0.27
50 | TYEMSVVGVEWWVTGQLTIC | 1.68 ± 0.38
51 | TFCVRQLYLSML | 0.833 ± 0.2
52 | KDFLANPKGESGQQRTMQCI | -0.502 ± 0.79
53 | YLACFTARL | 3.91 ± 0.049
54 | KNVLLKTLVHWLGRGMSAPG | 0.165 ± 1
55 | GSVTVCIMSRR | -0.729 ± 0.64
56 | SLRIYGYMDRKSPKESSNFR | 0.975 ± 0.37
57 | ELWVSQTTNEFSFVVGHVVC | 0.025 ± 0.5
58 | YGQLRHFVRTGLDGGTHRGL | -0.174 ± 0.76
59 | KCTTVIYYMCIGLRH | 4.98 ± 0.041
60 | WDLLLCNTKFFEIRIKADTL | 3.94 ± 0.094
61 | NTLSPFQIEFGGWLMGVLFK | 0.611 ± 0.81
62 | NRDKF | -1.07 ± 0.28
63 | KIRRPFEMRGSVRDRGCIVR | 0.938 ± 0.34
64 | GNFVRLLV | -0.031 ± 0.37
65 | WWTAQGCTELTVS | 0.855 ± 0.27
66 | FNDRHVCHREKFSRELGFCS | -0.479 ± 1

Row | Substance | amyloid nucleation score
67 | CYRVVTLFNFK | 6.178 ± 0.029
68 | RFIRSWNFCDRD | inactive
69 | SSFCKPLKVRWLGVIVQLSV | -0.872 ± 0.45
70 | GGLELLLGKMNVNVAMLKSF | 1.09 ± 0.17
71 | PATVVILS | 1.23 ± 0.45
72 | NLMCTACILDQWRHCKLVWN | 4.15 ± 0.091
73 | FHISYDTSS | -0.35 ± 1.1
74 | FLSLIGKSRS | inactive
75 | KFNPRPCSFKYLRV | inactive
76 | YGLAFTEDATFFKVCTY | -0.211 ± 0.8
77 | FCKSVHKVHGHNVWCTLCAG | 1.11 ± 0.18
78 | TVMKDYMALESSSYVNPMLI | -0.251 ± 0.76
79 | TLDIALKGG | 0.271 ± 0.25
80 | YSGFLRCLAYALI | 0.061 ± 0.8
81 | PAERSCGQCFQEFSWY | 0.102 ± 1.1
82 | HGGGVLHIFLNIAPLVS | 1.52 ± 0.28
83 | GLQRKGCP | -0.356 ± 1.1
84 | CHWSTGRYRDVMICVLWGIS | -0.049 ± 0.34
85 | SKVFCTIFAWVVVE | 7.038 ± 0.033
86 | QFHADSRQGFNVSEMLCWDG | -0.393 ± 0.49
